Reference: the supplement of paper PMC9112550, “Optimization of the antimicrobial peptide Bac7 by deep mutational scanning” (BMC Biology, 2022)

What follows are sequences tested on Escherichia coli TOP10 (assay: shrunken log2 fold change of peptide-encoding DNA abundance (4.5 h post-induction vs induction); higher = less antimicrobial activity (less host growth inhibition)). Details: time post-induction: 4.5 h; library: site-saturation at positions 5, 18, 19, 20.
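Also: peptides expressed intracellularly from a pBAD plasmid library in pooled LB shake-flask culture, induced with 0.3% L-arabinose, DNA abundance read by NGS, three biological replicates, DESeq2 with apeglm shrinkage.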

| Sequence | shrunken log2 fold change |
| --- | --- |
| RRIRQRPPRLPRPRPRPQEQPRP | -0.000777 |
| RRIRFRPPRLPRPRPRPPCHPRP | -0.0556 |
| RRIRYRPPRLPRPRPRPEYPPRP | -0.01 |
| RRIRCRPPRLPRPRPRPLEQPRP | 0.0367 |
| RRIRARPPRLPRPRPRPDPQPRP | 0.698 |
| RRIRMRPPRLPRPRPRPRHDPRP | 0.659 |
| RRIRDRPPRLPRPRPRPYYEPRP | -0.226 |
| RRIRMRPPRLPRPRPRPDDTPRP | 2.17 |
| RRIRWRPPRLPRPRPRPIPLPRP | -0.121 |
| RRIRRRPPRLPRPRPRPQERPRP | -0.0784 |
| RRIRERPPRLPRPRPRPFPCPRP | -0.0816 |
| RRIRCRPPRLPRPRPRPLNVPRP | -0.186 |
| RRIRERPPRLPRPRPRPVNSPRP | 0.0303 |
| RRIRDRPPRLPRPRPRPCFCPRP | -0.054 |
| RRIRVRPPRLPRPRPRPQCPPRP | -0.0117 |
| RRIRSRPPRLPRPRPRPCAVPRP | -0.255 |
| RRIRQRPPRLPRPRPRPHALPRP | -0.6 |
| RRIRQRPPRLPRPRPRPPIIPRP | -0.0647 |
| RRIRMRPPRLPRPRPRPTMAPRP | 1.03 |
| RRIRFRPPRLPRPRPRPIPMPRP | -0.428 |
| RRIRIRPPRLPRPRPRPCCNPRP | -0.0118 |
| RRIRSRPPRLPRPRPRPLCFPRP | -0.0528 |
| RRIRLRPPRLPRPRPRPTPWPRP | 0.381 |
| RRIRMRPPRLPRPRPRPLDWPRP | 0.474 |
| RRIRKRPPRLPRPRPRPKSRPRP | 0.296 |

| Sequence | shrunken log2 fold change |
| --- | --- |
| RRIRKRPPRLPRPRPRPVGNPRP | 0.0255 |
| RRIRVRPPRLPRPRPRPHISPRP | 0.0648 |
| RRIRQRPPRLPRPRPRPALSPRP | 0.217 |
| RRIRYRPPRLPRPRPRPQLAPRP | -0.228 |
| RRIRFRPPRLPRPRPRPDWSPRP | -0.214 |
| RRIRQRPPRLPRPRPRPSDQPRP | 0.152 |
| RRIRSRPPRLPRPRPRPFKYPRP | -0.418 |
| RRIRFRPPRLPRPRPRPWRGPRP | 0.172 |
| RRIRVRPPRLPRPRPRPENFPRP | 0.0199 |
| RRIRVRPPRLPRPRPRPNGVPRP | -0.154 |
| RRIRVRPPRLPRPRPRPSHIPRP | -0.706 |
| RRIRSRPPRLPRPRPRPDSHPRP | -0.36 |
| RRIRPRPPRLPRPRPRPQASPRP | -0.137 |
| RRIRRRPPRLPRPRPRPESCPRP | 0.763 |
| RRIRSRPPRLPRPRPRPFNGPRP | -0.0626 |
| RRIRTRPPRLPRPRPRPSAGPRP | -0.0241 |
| RRIRRRPPRLPRPRPRPVAVPRP | 0.348 |
| RRIRFRPPRLPRPRPRPLPGPRP | 0.403 |
| RRIRRRPPRLPRPRPRPVDCPRP | 0.12 |
| RRIRHRPPRLPRPRPRPKFYPRP | -0.148 |
| RRIRPRPPRLPRPRPRPYDFPRP | -0.194 |
| RRIRWRPPRLPRPRPRPWWHPRP | 0.357 |
| RRIRCRPPRLPRPRPRPYQRPRP | 0.055 |
| RRIRKRPPRLPRPRPRPFIFPRP | 0.085 |
| RRIRGRPPRLPRPRPRPPRNPRP | 1.1 |

| Sequence | shrunken log2 fold change |
| --- | --- |
| RRIRPRPPRLPRPRPRPRYVPRP | -0.24 |
| RRIRTRPPRLPRPRPRPWIMPRP | -0.621 |
| RRIRQRPPRLPRPRPRPFGQPRP | -0.0598 |
| RRIRARPPRLPRPRPRPEGSPRP | 0.805 |
| RRIRWRPPRLPRPRPRPICRPRP | -0.0371 |
| RRIRYRPPRLPRPRPRPWMYPRP | -0.00277 |
| RRIRWRPPRLPRPRPRPAAQPRP | -0.0638 |
| RRIRPRPPRLPRPRPRPAGCPRP | 0.386 |
| RRIRVRPPRLPRPRPRPVSQPRP | 0.051 |
| RRIRKRPPRLPRPRPRPQPQPRP | 0.817 |
| RRIRGRPPRLPRPRPRPYGYPRP | 0.158 |
| RRIRYRPPRLPRPRPRPEWLPRP | 0.00963 |
| RRIRCRPPRLPRPRPRPKIWPRP | 0.121 |
| RRIRPRPPRLPRPRPRPFCTPRP | -0.00789 |
| RRIRKRPPRLPRPRPRPDSLPRP | 0.00855 |
| RRIRLRPPRLPRPRPRPCNAPRP | -0.129 |
| RRIRARPPRLPRPRPRPINSPRP | -0.213 |
| RRIRQRPPRLPRPRPRPCLGPRP | 0.172 |
| RRIRIRPPRLPRPRPRPDPEPRP | -0.158 |
| RRIRPRPPRLPRPRPRPMYNPRP | -0.639 |
| RRIRVRPPRLPRPRPRPPTKPRP | 0.417 |
| RRIRDRPPRLPRPRPRPVQEPRP | -0.0575 |
| RRIRSRPPRLPRPRPRPGCPPRP | 0.18 |
| RRIRERPPRLPRPRPRPECIPRP | 0.248 |
| RRIRWRPPRLPRPRPRPIMMPRP | -0.312 |

| Sequence | shrunken log2 fold change |
| --- | --- |
| RRIRNRPPRLPRPRPRPLTHPRP | -0.566 |
| RRIRHRPPRLPRPRPRPEQAPRP | -0.0477 |
| RRIRSRPPRLPRPRPRPHWRPRP | 0.39 |
| RRIRPRPPRLPRPRPRPKIKPRP | -0.0894 |
| RRIRLRPPRLPRPRPRPNNKPRP | -0.357 |
| RRIRKRPPRLPRPRPRPGPHPRP | 0.803 |
| RRIRTRPPRLPRPRPRPEFDPRP | 0.214 |
| RRIRRRPPRLPRPRPRPMSEPRP | 0.0166 |
| RRIRNRPPRLPRPRPRPYMMPRP | -0.118 |
| RRIRPRPPRLPRPRPRPYINPRP | -0.739 |
| RRIRGRPPRLPRPRPRPQGQPRP | 0.414 |
| RRIRDRPPRLPRPRPRPTNYPRP | -0.48 |
| RRIRERPPRLPRPRPRPNLMPRP | -0.665 |
| RRIRWRPPRLPRPRPRPHQSPRP | 0.0383 |
| RRIRMRPPRLPRPRPRPEMHPRP | 0.346 |
| RRIRARPPRLPRPRPRPHRGPRP | 0.14 |
| RRIRVRPPRLPRPRPRPFGFPRP | -0.294 |
| RRIRHRPPRLPRPRPRPHKAPRP | -0.31 |
| RRIRCRPPRLPRPRPRPADYPRP | -0.263 |
| RRIRVRPPRLPRPRPRPWAHPRP | -0.0201 |
| RRIRKRPPRLPRPRPRPCEEPRP | 0.56 |
| RRIRTRPPRLPRPRPRPWYHPRP | -0.464 |
| RRIRFRPPRLPRPRPRPEVEPRP | 0.00408 |
| RRIRNRPPRLPRPRPRPCYTPRP | -0.0126 |
| RRIRKRPPRLPRPRPRPMGIPRP | -0.00149 |

| Sequence | shrunken log2 fold change |
| --- | --- |
| RRIRLRPPRLPRPRPRPTGDPRP | -0.00286 |
| RRIRNRPPRLPRPRPRPQAQPRP | -0.0086 |
| RRIRGRPPRLPRPRPRPNCTPRP | 0.172 |
| RRIRTRPPRLPRPRPRPAIVPRP | 0.00191 |
| RRIRCRPPRLPRPRPRPNEQPRP | 0.256 |
| RRIRPRPPRLPRPRPRPLSMPRP | -0.33 |
| RRIRGRPPRLPRPRPRPIRWPRP | 0.577 |
| RRIRKRPPRLPRPRPRPSSEPRP | 0.2 |
| RRIRPRPPRLPRPRPRPISEPRP | -0.303 |
| RRIRCRPPRLPRPRPRPKKSPRP | -0.0331 |
| RRIRVRPPRLPRPRPRPYACPRP | 0.0114 |
| RRIRQRPPRLPRPRPRPWGVPRP | 0.122 |
| RRIRHRPPRLPRPRPRPWFNPRP | -0.153 |
| RRIRQRPPRLPRPRPRPSHYPRP | -0.224 |
| RRIRFRPPRLPRPRPRPCWVPRP | -0.331 |
| RRIRNRPPRLPRPRPRPPLSPRP | 0.502 |
| RRIRVRPPRLPRPRPRPTFHPRP | 0.0139 |
| RRIRQRPPRLPRPRPRPIPRPRP | 0.145 |
| RRIRNRPPRLPRPRPRPYNHPRP | -1.85 |
| RRIRHRPPRLPRPRPRPGTYPRP | -0.0156 |
| RRIRNRPPRLPRPRPRPGICPRP | 0.122 |
| RRIRSRPPRLPRPRPRPGILPRP | -0.0441 |
| RRIRWRPPRLPRPRPRPKCSPRP | 0.0308 |
| RRIRGRPPRLPRPRPRPHAKPRP | 0.126 |
| RRIRARPPRLPRPRPRPDYQPRP | -0.0168 |

| Sequence | shrunken log2 fold change |
| --- | --- |
| RRIRCRPPRLPRPRPRPPMTPRP | 0.155 |
| RRIRQRPPRLPRPRPRPVWEPRP | 0.0571 |
| RRIRWRPPRLPRPRPRPNNMPRP | -0.345 |
| RRIRWRPPRLPRPRPRPTHWPRP | 0.322 |
| RRIRHRPPRLPRPRPRPHSHPRP | -0.41 |
| RRIRYRPPRLPRPRPRPRWPPRP | 0.498 |
| RRIRKRPPRLPRPRPRPPDIPRP | 0.609 |
| RRIRIRPPRLPRPRPRPVSFPRP | 0.00232 |
| RRIRFRPPRLPRPRPRPSSFPRP | -0.227 |
| RRIRIRPPRLPRPRPRPSVVPRP | 0.055 |
| RRIRFRPPRLPRPRPRPTGTPRP | 0.0314 |
| RRIRLRPPRLPRPRPRPRPVPRP | 0.637 |
| RRIRWRPPRLPRPRPRPMFQPRP | -0.241 |
| RRIRRRPPRLPRPRPRPDEPPRP | -0.0328 |
| RRIRCRPPRLPRPRPRPMVEPRP | 0.237 |
| RRIRERPPRLPRPRPRPFNMPRP | -0.236 |
| RRIRARPPRLPRPRPRPTWPPRP | 1.13 |
| RRIRARPPRLPRPRPRPWHSPRP | 0.0528 |
| RRIRKRPPRLPRPRPRPNKMPRP | -0.231 |
| RRIRNRPPRLPRPRPRPAYNPRP | -0.259 |
| RRIRCRPPRLPRPRPRPTQSPRP | 0.565 |
| RRIRVRPPRLPRPRPRPYYPPRP | -0.414 |
| RRIRSRPPRLPRPRPRPRIQPRP | -0.00704 |
| RRIRQRPPRLPRPRPRPMCWPRP | -0.00818 |
| RRIRMRPPRLPRPRPRPMALPRP | 0.517 |
